Experiment [1] concerns the target SnLH3. The experiment can be described thus: SAXS.
The target of experiment [2] is SnLH3. The experiment can be described thus: native gel or EMSA. In general terms: In EMSA bound probe runs differently from free probe, usually more slowly.

As for SnLH3 (natural protein), the stoichiometry N in experiment [1] and in experiment [2] was 3 in each case.

Source of the values: article PMC6003418.
